We go through 25 sequences from the supplement of paper PMC10201428.

± gives the standard deviation of the averaged measurements.

The test system of this series is VchCAST RNA-guided transposition machinery (E. coli BL21(DE3) host, lacZ target). Kind of series: relative integration efficiency (T-RL orientation) vs wild-type transposon end (log2 (normalized fold change)); transposon end mutated: right end (5 bp flank + 75 bp right end); higher = more efficient transposition. Put shortly: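 Each barcoded pool, 1549 left-end or 1849 right-end transposon variants in a pUC57 mini-transposon donor, went into E. coli BL21(DE3) with a T7-driven effector plasmid (CRISPR array, tniQ-cas8-cas7-cas6, tnsA-tnsB-tnsC). Plates contained 0.1 mM IPTG and were held at 37°C for 18 h. Input plasmids and genomic integration junctions were PCR-amplified and read by Illumina sequencing, with two biological output replicates and four reference barcodes. Relative integration efficiency is the fold change of output over input barcode abundance, normalised to the reference barcodes and log-transformed.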
On to “ACATTTGTTGATACAACCATAAAATGATAATTACAACCATATATTGATATCTCTCACACCCATAAATTGATAATTACTCTGATCATAGTCAGACCAACATTGCTACGACCCGTATTCGCACCGACAC”, for which the “relative integration efficiency (log2)” value is -0.651 ± 0.2.

“ACATGGGTTGATACAACCATAAAATGATAATTACACCCATAAATTGATAATTATCACACCCATAAATTGATATTGCCTCTGATCATAGTCAGACCAACATTGCTACGACCCGTATTCGCACCGACAC”: the “relative integration efficiency (log2)” value is -6.44 ± 0.3.

For the sequence “ACATTTGTTGATACAACCATAAACGTCTAATTACACCCATAAATTGATAATTATCACACCCATAAATTGATATTGCCTCTGATCATAGTCAGACCAACATTGCTACGACCCGTATTCGCACCGACAC”, the “relative integration efficiency (log2)” value was -2.72 ± 0.083.

In the case of “ACATTTGTTGATACAACCATAAAATGATAATTACACCCATAAATTGATAATTATCACACCCCGCCCGGTCGCGGTAAGAGGATCATAGTCAGACCAACATTGCTACGACCCGTATTCGCACCGACAC”, the “relative integration efficiency (log2)” value was -0.532 ± 0.054.

As for “ACATTTGTTGATAGTTGGTATTTTACTATTAATGTGGGTATTTAACTATTAATTCAGTGGGTATTTAACTATAACGCTCTGATCATAGTCAGACCAACATTGCTACGACCCGTATTCGCACCGACAC”, the “relative integration efficiency (log2)” value is -6.63 ± 0.31.

In the case of “ACATTTGTTGATACAACCATAAAATGATAATTACACCCATAAATTGATATTGCTCACAACCATATATTGATATCTCCTCTGATCATAGTCAGACCAACATTGCTACGACCCGTATTCGCACCGACAC”, the “relative integration efficiency (log2)” value was -0.74 ± 0.17.

Consider “ACATTTGTTGATACCACCATCAAATGATAATTCCACCCCTACATTGATAATTATCACACCCAATTTAACTATAACGCTCTGATCATAGTCAGACCAACATTGCTACGACCCGTATTCGCACCGACAC”, for which the “relative integration efficiency (log2)” value is -5.99 ± 0.51.

With “ACATTTGTTGATACCACCATAAAATGGTAATTCCACCCATACATTGATAATTATCACACCCAATTTAACTATAACGCTCTGATCATAGTCAGACCAACATTGCTACGACCCGTATTCGCACCGACAC”, the “relative integration efficiency (log2)” value is -3.16 ± 0.49.

For “ACATTTGTTGATACAACCATAAAATGATAATTACACCCATAAATTGATAATTATCACACCCATAAATTGATATTGCCTCTGATAACTTCGTATAAAGTATCCTATACGAAGTTATTCGCACCGACAC”, the “relative integration efficiency (log2)” value is -0.255 ± 0.26.

Regarding “ACATTTGTTGATACAACCATAAAATGATACGGCCACCCATAAATTGATAATTATCACACCCATAAATTGATATTGCCTCTGATCATAGTCAGACCAACATTGCTACGACCCGTATTCGCACCGACAC”, the “relative integration efficiency (log2)” value was -0.7776 ± 0.00016.

Take “ACATTTGTTGATACAACCATAAAATGATAATTACACCCATAAATTGATAATTATCACACCCATAAATTGATATTCGGACTGATCATAGTCAGACCAACATTGCTACGACCCGTATTCGCACCGACAC”: the “relative integration efficiency (log2)” value was -0.0234 ± 0.0045.

For the sequence “ACATTTGTTGATACAACCATAAAATGATAATTACACCCATCCCGGTCGCCGGCGACACAAACGCCCGGTCGCGGTAAGAGGATCATAGTCAGACCAACATTGCTACGACCCGTATTCGCACCGACAC”, the “relative integration efficiency (log2)” value is -2.64 ± 0.12.

Consider “ACATTTGTTGATACAACCATAAAATGATAATTACCCCCATCAATTGATAATTATCCCACCCCATTTAACTATAACGCTCTGATCATAGTCAGACCAACATTGCTACGACCCGTATTCGCACCGACAC”, for which the “relative integration efficiency (log2)” value is -2.78 ± 0.51.

On to “ACATTTGTTGATACAACCATAAAACGATAATTACACCCATAAATGGATAATTATCACACCCAATTTAACTATAACGCTCTGATCATAGTCAGACCAACATTGCTACGACCCGTATTCGCACCGACAC”, for which the “relative integration efficiency (log2)” value was -1.18 ± 0.21.

For the sequence “ACATTTGTTGATACAACCAATAAATGATAATTACCCCCATAAATTGATAATTGTGACACCGAATTTAACTATAACGCTCTGATCATAGTCAGACCAACATTGCTACGACCCGTATTCGCACCGACAC”, the “relative integration efficiency (log2)” value is -2.18 ± 0.42.

For “ACATTTGTCGATACAACCCTAAAATGATAATTACACCCATAAATTGATCATTATCACACCCAATTTAACTATAACGCTCTGATCATAGTCAGACCAACATTGCTACGACCCGTATTCGCACCGACAC”, the “relative integration efficiency (log2)” value was -3 ± 0.31.

Regarding “ACATTTGTTGATACAACCATAAAATGATAATTAATAATTATTTATAATCAGCAACTTAACCACCCATAAATTGATAATTATCAACAAACGCCCGGTCGCGGTACTCTGATCATAGTCAGACCAACAT”, the “relative integration efficiency (log2)” value was -3.11 ± 0.29.

For “ACATTTGTTGATACCACCATCAAATGGTAATTACACCCATACATTGATAATTATCACACCCAATTTAACTATAACGCTCTGATCATAGTCAGACCAACATTGCTACGACCCGTATTCGCACCGACAC”, the “relative integration efficiency (log2)” value was -5.6 ± 0.15.

As for “ACATTTGTTGATACAACCATAAGTTGATATTTTCAACCATAAGTTGATATTTTTCACACCCATAAATTGATATTGCCTCTGATCATAGTCAGACCAACATTGCTACGACCCGTATTCGCACCGACAC”, the “relative integration efficiency (log2)” value turned out to be 0.348 ± 0.062.

Regarding “ACATTTGTGGATACAACCATAAAACGATAATTACACCCATAAATTGATCATTATCACACCCAATTTAACTATAACGCTCTGATCATAGTCAGACCAACATTGCTACGACCCGTATTCGCACCGACAC”, the “relative integration efficiency (log2)” value is -1.43 ± 0.24.

“ACATTTGTTGATACAACCATAAAATGATAATTACACCCATAAATTGATAATTATCACACCCATAAATTGATATTGCCTCTATGTACACTGATGAGTTATTACACCTCAAGTTCAATGGCACCGACAC”: the “relative integration efficiency (log2)” value was -0.228 ± 0.28.

For the sequence “ACATTTGTTGATACAACCATAAAATGATAATTACAAACATAAATTGATAATTATCACACCCATAAATTGATATTGCCTCTGATCATAGTCAGACCAACATTGCTACGACCCGTATTCGCACCGACAC”, the “relative integration efficiency (log2)” value was -0.0203 ± 0.014.

As to “ACATTTGTTGATACACCCATAAATTGATAATTACAACCATAAGTTGATATTTTTCACAACCATATATTGATATCTCCTCTGATCATAGTCAGACCAACATTGCTACGACCCGTATTCGCACCGACAC”, the “relative integration efficiency (log2)” value is -0.626 ± 0.19.

Turning to “ACATTTGTTGATACAACCATAAAATGATAATTAATAATTATTTATAATCAGCACACCCATAAATTGATAATTATCAACAAACGCCCGGTCGCGGTACTCTGATCATAGTCAGACCAACATTGCTACG”, the “relative integration efficiency (log2)” value was -2.43 ± 0.16.

In the case of “ACATTTGTTGATACAACCATAAAATGATAATGCCACCCATAAATTGATAATGCTCACACCCATAAATTGATATTTACTCTGATCATAGTCAGACCAACATTGCTACGACCCGTATTCGCACCGACAC”, the “relative integration efficiency (log2)” value was -0.867 ± 0.17.
